According to the supplement of paper PMC9170038:

Tested on: MS2 coat protein
Experiment: apparent KD of MS2 coat protein; designed switch direction (-1 OFF switch, 1 ON switch): -1; higher = weaker reporter binding
Summary of the method: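 Apparent KD, taken as the median over clusters for each design, was obtained by curve-fitting normalised cluster fluorescence. Designed RNA switches had been transcribed on Illumina chips by stalled E. coli RNA polymerase and titrated with SNAP-549-labelled MS2 coat protein, doubling from 0.7 or 1.5 nM to 3 µM.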

[1] = input ligand: microRNA oligo, concentration not stated
[2] = Eterna round: R95, input ligand: microRNA oligo, concentration not stated

Sequence: UCUAUAGGGCUGCAGGCUUACAUGAGGAUCACCCAUGUAUAGGGUUUUCUACGCGCUCGUCAUCAUACAUUAAUUCG [Eternabot (L1) Solution 31] (Eterna round: R97, puzzle: Sensor, turn-off variant 1)
- apparent KD of MS2 coat protein (input ligand: FMN 200 uM): 44 nM
- apparent KD of MS2 coat protein (input ligand: none): 53.1 nM

Sequence: UCUCGCUGGCGAGGAUAUCCUGUGCGGUUCCGGCUCGUGUCUGUUACAUGAGGAUCACCCAUGUGGGAGAAGGUGCCUGUGGCC [Design 95] (Eterna round: R96, puzzle: Exclusion NG 2)
- apparent KD of MS2 coat protein (input ligand: FMN 200 uM): 21.1 nM
- apparent KD of MS2 coat protein [1]: 15.6 nM
- apparent KD of MS2 coat protein (input ligand: none): 21 nM

Sequence: UCUCGUUGGCAAGGAUAUCCUACAUUGUUCUGGCCCGGGCAUGCUACAUGAGGAUCACCCAUGUGGGAGAAGGUGCGCCAUUGC [Design 24] (Eterna round: R96, puzzle: Exclusion NG 2)
- apparent KD of MS2 coat protein (input ligand: FMN 200 uM): 80.9 nM
- apparent KD of MS2 coat protein [1]: 49.7 nM
- apparent KD of MS2 coat protein (input ligand: none): 65.2 nM

Sequence: UCUCUUGGGCAAGGAUAUCCUGUGCGGUUCCGGCUCGUGUCUGUCACAUGAGGAUCACCCAUGUGGGAGAAGGUGCCUGCGGUC [Design 81] (Eterna round: R96, puzzle: Exclusion NG 2)
- apparent KD of MS2 coat protein (input ligand: FMN 200 uM): 13.6 nM
- apparent KD of MS2 coat protein [1]: 9.94 nM
- apparent KD of MS2 coat protein (input ligand: none): 15.1 nM

Sequence: UCUUAGUCAGGAUAUACAUGAGGAUCACCCAUGUAAAAUUUUAAUUUAAUUUUAAGGUGUAGAAGGGACCACCU [Ex3 #18] (Eterna round: R97, puzzle: Exclusion 3)
- apparent KD of MS2 coat protein (input ligand: FMN 200 uM): 19.2 nM
- apparent KD of MS2 coat protein (input ligand: none): 23.4 nM

Sequence: UCUUAUAGAGGAUAUACAGAUUAUUACAUGAGGAUCACCCAUGUUCUUCAAUGUAUAUAUGUAGAAGGCUAAGGAU [Mat - Exclusion 5 - JL Mod - D9] (Eterna round: R97, puzzle: Exclusion 5)
- apparent KD of MS2 coat protein (input ligand: FMN 200 uM): 316 nM
- apparent KD of MS2 coat protein (input ligand: none): 111 nM

Sequence: UCUUCACAUGAGGAUCACCCAUGUCAGGAUAUGCUCCCGAGUCACCUUAUCAUGGGACGCAGAAGGGACAUUAU [EX1 B.3] (Eterna round: R97, puzzle: Exclusion 1)
- apparent KD of MS2 coat protein (input ligand: FMN 200 uM): 43 nM
- apparent KD of MS2 coat protein (input ligand: none): 19.8 nM

Sequence: UGACCUUUUGUCAGGAUAUAUAUACGUGUUGGUAGGUAGAAGGGACAUGAGGAUCACCCAUGUGGUUUGAGCUA [Eternabot (L1) Solution 74] (Eterna round: R97, puzzle: Brourd's mod of Exclusion 4)
- apparent KD of MS2 coat protein (input ligand: FMN 200 uM): 433 nM
- apparent KD of MS2 coat protein (input ligand: none): 155 nM

Sequence: UGACGCACGCGAGGAUAUUCCCACGAAACAAACAACGAAGGGUACAUGAGGAUCACCCAUGUGGCGAAGAAGGCGCGCGUCCGG [Eternabot solution 1] (Eterna round: R96, puzzle: Exclusion NG 2)
- apparent KD of MS2 coat protein (input ligand: FMN 200 uM): 923 nM
- apparent KD of MS2 coat protein [1]: 503 nM
- apparent KD of MS2 coat protein (input ligand: none): 1310 nM

Sequence: UGACGUCAUGUCAGGAUAUAGGCGAUGCGUGUCUUCUAGAAGGGACAUGAGGAUCACCCAUGUAAACUUUUGGU [Eternabot (L1) Solution 56] (Eterna round: R97, puzzle: Brourd's mod of Exclusion 4)
- apparent KD of MS2 coat protein (input ligand: FMN 200 uM): 136 nM
- apparent KD of MS2 coat protein (input ligand: none): 148 nM

Sequence: UGAGUAGAUCCGAAGGGAGACAUGAGGAUCACCCAUGUAUUAAGUUUUUAUGCUCGUCGCCUACGUAACCGUAGGAC [Eternabot (Original) Solution 2] (Eterna round: R97, puzzle: Sensor, turn-off variant 1)
- apparent KD of MS2 coat protein (input ligand: FMN 200 uM): 344 nM
- apparent KD of MS2 coat protein (input ligand: none): 360 nM

Sequence: UGAGUGCUGCGAGGAUAUACAUGAGGAUCACCCAUGUGGAUGUCUGAGGCUUUGCCUCAGACGAUGUAGAAGGCGCAGUACUCU [JL ENG2 1.20] (Eterna round: R96, puzzle: Exclusion NG 2)
- apparent KD of MS2 coat protein (input ligand: FMN 200 uM): 100 nM
- apparent KD of MS2 coat protein [1]: 15.2 nM
- apparent KD of MS2 coat protein (input ligand: none): 22.1 nM

Sequence: UGAUCAGACCGAGGAUAUACAUGGAGGACGCACGUGAGUGCGUCCACUACAUGAGGAUCACCCAUGUAGAAGGCGGUCUGAUCU [JL ENG2 1.92] (Eterna round: R96, puzzle: Exclusion NG 2)
- apparent KD of MS2 coat protein (input ligand: FMN 200 uM): 1100 nM
- apparent KD of MS2 coat protein [1]: 130 nM
- apparent KD of MS2 coat protein (input ligand: none): 144 nM

Sequence: UGAUCAGACCGAGGAUAUAUAUGUAGGACCCACGUGAGUGGGUCCAGAACAUGAGGAUCACCCAUGUAGAAGGCGGUCUGAUCU [JL ENG2 1.88] (Eterna round: R96, puzzle: Exclusion NG 2)
- apparent KD of MS2 coat protein (input ligand: FMN 200 uM): 19 nM
- apparent KD of MS2 coat protein [1]: 11.5 nM
- apparent KD of MS2 coat protein (input ligand: none): 16.2 nM

Sequence: UGAUCCCAUGUCAGGAUAUAGAGGCGGUAGCCUGGCUAGAAGGGACAUGAGGAUCACCCAUGUCGGUUCUUGCC (puzzle: Brourd's mod of Exclusion 4)
- apparent KD of MS2 coat protein [2]: 30.6 nM

Sequence: UGAUCUAGCGGAGGAUAUACAUGAGGAUCACCCAUGUAGACUCUAUGACCGUAGUCGUGGAGAGUGUAGAAGGCCGCUAGAUCU [JL ENG2 3.75] (Eterna round: R96, puzzle: Exclusion NG 2)
- apparent KD of MS2 coat protein (input ligand: FMN 200 uM): 16.6 nM
- apparent KD of MS2 coat protein [1]: 8.79 nM
- apparent KD of MS2 coat protein (input ligand: none): 13.1 nM

Sequence: UGAUCUAGCGGAGGAUAUACAUGAGGAUCACCCAUGUAGAUGAGUGUACCGUAGUGCACUAUUGUGUAGAAGGCCGCUAGAUCU [JL ENG2 3.63] (Eterna round: R96, puzzle: Exclusion NG 2)
- apparent KD of MS2 coat protein (input ligand: FMN 200 uM): 69.9 nM
- apparent KD of MS2 coat protein [1]: 13.7 nM
- apparent KD of MS2 coat protein (input ligand: none): 19.8 nM

Sequence: UGAUCUAGCGGAGGAUAUACAUGAGGAUCACCCAUGUAUAGGCUAUGACCGUAGUCGUGGCACGUGUAGAAGGCCGCUAGAUCU [JL ENG2 3.77] (Eterna round: R96, puzzle: Exclusion NG 2)
- apparent KD of MS2 coat protein (input ligand: FMN 200 uM): 12.7 nM
- apparent KD of MS2 coat protein [1]: 8.1 nM
- apparent KD of MS2 coat protein (input ligand: none): 12.8 nM

Sequence: UGAUGGAGGCAGGAUAUUUUGAUGGAUACGAUAAAAGAAGGGCUGACAUGAGGAUCACCCAUGUGGAUAGCUCA [Eternabot (L1) Solution 39] (Eterna round: R97, puzzle: Exclusion 6)
- apparent KD of MS2 coat protein (input ligand: FMN 200 uM): 17.8 nM
- apparent KD of MS2 coat protein (input ligand: none): 14.4 nM

Sequence: UGAUUCGGAGGAUAUACAUGAGGAUCACCCAUGUUACCGGAAGGUAGGAGAGGUCGCCGUAGAAGGCUGCACAU [Eternabot (Original) Solution 7] (Eterna round: R97, puzzle: Exclusion 3)
- apparent KD of MS2 coat protein (input ligand: FMN 200 uM): 30.4 nM
- apparent KD of MS2 coat protein (input ligand: none): 31.5 nM

Sequence: UGCAGACGAGGAUAUAGAUUUGAUAACAUGAGGAUCACCCAUGUGAUCGAUAGAUCAGAUUUAGAAGGUGUCUGCA [E5/8-B2] (Eterna round: R97, puzzle: Exclusion 5)
- apparent KD of MS2 coat protein (input ligand: FMN 200 uM): 579 nM
- apparent KD of MS2 coat protein (input ligand: none): 431 nM

Sequence: UGCAGACGAGGAUAUGAUCAAUAAUACAUGAGGAUCACCCAUGUAAUACUGAUCCAUGGAUCAGAAGGUGUCUGCA [E5/5-B2] (Eterna round: R97, puzzle: Exclusion 5)
- apparent KD of MS2 coat protein (input ligand: FMN 200 uM): 19.5 nM
- apparent KD of MS2 coat protein (input ligand: none): 17.5 nM

Sequence: UGCAUGCUAGGAUAUACGGGACAUUAGGGUUCGUUGUAUGGACAUGAGGAUCACCCAUGUAGAAGGAGCGUGCU [Mod5 of JL-ex2-2.15 mat747 mod] (puzzle: Exclusion 2)
- apparent KD of MS2 coat protein [2]: 26 nM

Sequence: UGCAUGGUAGGAUAUACGGAACAUUAGGGUUUGUUAUGUGGACAUGAGGAUCACCCAUGUAGAAGGGCCGUGCU [JL-ex2-2.15 mat747 mod] (puzzle: Exclusion 2)
- apparent KD of MS2 coat protein [2]: 40.4 nM

Sequence: UGCAUGUGAGGAUAUGUACCUGAGUGCUUUGCGCUCAGGAAACAGAAGGCACAUGAGGAUCACCCAUGUGAAAA [jl-ex4-4.46 ViennaUCT mod] (Eterna round: R97, puzzle: Exclusion 4)
- apparent KD of MS2 coat protein (input ligand: FMN 200 uM): 74.1 nM
- apparent KD of MS2 coat protein (input ligand: none): 208 nM

Sequence: UGCGGGCUUUUGAGACCUCACAUGAGGAUCACCCAUGUGCUUGUCUUGUGGGUCGGUAGGUCGUUGGCUGACUGACG [Sensor-V1 #97] (Eterna round: R97, puzzle: Sensor, turn-off variant 1)
- apparent KD of MS2 coat protein (input ligand: FMN 200 uM): 15.5 nM
- apparent KD of MS2 coat protein (input ligand: none): 13.4 nM

Sequence: UGCUACGGAGGAUAUACAUGAGGAUCACCCAUGUGAUAGAUUAUCGCGAAAGCGUAAUGUAGAAGGCCGUAGCU [jl-ex3-4.11 jl mod] (Eterna round: R97, puzzle: Exclusion 3)
- apparent KD of MS2 coat protein (input ligand: FMN 200 uM): 556 nM
- apparent KD of MS2 coat protein (input ligand: none): 54.4 nM

Sequence: UGCUGACGAGGAUAUACAUGAGGAUCACCCAUGUUGGUCAAGCGACUUCGGUCGCAAUGUAGAAGGCGUCAGCA [E3/8-A5] (Eterna round: R97, puzzle: Exclusion 3)
- apparent KD of MS2 coat protein (input ligand: FMN 200 uM): 290 nM
- apparent KD of MS2 coat protein (input ligand: none): 513 nM

Sequence: UGCUGACGAGGAUAUACAUGAGGAUCACCCAUGUUGGUCAAGCGACUUCGGUCGCAAUGUAGAAGGCGUCAGCU [E3/8-A6] (Eterna round: R97, puzzle: Exclusion 3)
- apparent KD of MS2 coat protein (input ligand: FMN 200 uM): 186 nM
- apparent KD of MS2 coat protein (input ligand: none): 395 nM

Sequence: UGUACGAUGCGUGCUGACAUGCGUCGUGCAGCAGGUGGAACAUGAGGAUCACCCAUGUCCUCAUUUGCUCGUCUUAU [Mat - Sensor v3 - Turn-off var 2 - D21] (Eterna round: R96, puzzle: Sensor v3, turn-off variant 2)
- apparent KD of MS2 coat protein (input ligand: FMN 200 uM): 35.1 nM
- apparent KD of MS2 coat protein [1]: 104 nM
- apparent KD of MS2 coat protein (input ligand: none): 39.1 nM
